Laboratory results reported in the DeepSol protein solubility set.

Test: soluble on expression in E. coli; label from the status in PepcDB or PDB records

Sequence | soluble on expression in E. coli
MGSDKIHHHHHHMMRDTPLLHRDDPAKDPLVGHIKVTREDWVNTARDVLVNSGVAQVKIATLAGRLDVSRSSFYWYFQNRDELLSALLQDWQTRNTRSITDHCARPSRSIAQALCNFFRCFVDTRQFDPGLDFAIREWARRNEDVRDAIDAADTARLDAVRAMFDRHDYAPEDADARARILYFMQLGYHALDLREDMETRMSRVSAYVLGFTGISPQNTDIEEFLDYVGDLAPHGISGASQRA | not soluble
MDRVLSRADKERLLELLKLPRQLWGDFGRMQQAYKQQSLLLHPDKGGSHALMQELNSLWGTFKTEVYNLRMNLGGTGFQ | soluble
MSLNIISVGVNHKTAPIEIRERIALSEVQNKELVTDLVSSGLASEAMVVSTCNRTELYVVPGMPEVNCDYLKDYIISYKNARNAVRPEHFFSRFYCGTARHLFEVSCAIDSLVLGEGQILGQVKNAYRIAAEVGTAGILLTRLCHTAFSVAKKVKTRTKLMEGAVSVSYAAVELAQKIFSNLSMKKVLLIGAGETGELAAKHMYAKNARNIVITNRTQSKAEALAEELGTNRVLPYESYKEHLHEFDIIITAVSTKEYILNAAEMQQSMAKRRLKPVIILDLGLPRNVDPEVGALQNMFLKDIDALKHIIDKNLERRRAELPKVKAIIDEELVAFGQWLNTLKVRPTIVDLQSKEGHHHHHH | soluble
MARMKFLCDTKRCIECNGCVTACKNENDDALEWGIQRRRVVTLNDGEPGENSISVACMHCTDAPCMAVCPADCFVHTEDGIVLHNKDLCIGCGYCLFACPFGAPQFPKQAAFGERGKMDKCTFCAGGPETEPGSEEERRKYGANRIAEGKLPMCASLCSTKALLAGDAEKISDIFRQRVVERGAKGAGWTNGEDLAYDATRS | not soluble
MDYQQLANQIKQWAIELGFEKVGICDVDLSEHEPALQAWLDAGYHGEMDWMARHGMMRARPAELLPGTLRVISARINYLPPQAQFASNLSDPNQAYISRYALGRDYHKLVRNQLKKLGEKIEQEVGKLGYRPFVDSAPILERPLAQKAGLGWTGKHSLILDKENGSWFFLGELLVDIPLPVDEPSENQCGKCTACITSCPTNAIVAEGVVDARRCVSYLTIEYSGVIPLEFRRAMGNRIYGCDDCQLVCPWNRFAPLTQQSDFHRRQSLNNADLVVLFEWDEATFLKNMEGSAIRRIGHQQWRRNLIIAMGNAPYSPRIIDTLQRHLGQSELLDEHIHWALEEQTQKTATPRQHARLIRIIEKGLPRDA | not soluble
MSQPPLLSGPGGRLLGAALLIGLLAGCGSVSTGNAGSGTVGTSTTSRADVMTFQPSSLPVSYVGETYNVQVGVTGGVGPYGYRLTAGTLPPGLKFAGGALSGTPTKAGSYSFAIQATDANLSTRVQEYTMNVDALPPLALKPTLPPGEIRGETRIPVTIQAPRAVRAARLSWDLGKDVQVTRVQPADAGSVVFWQQRGSVLTVDLGFRTVPRPDARIALITVKPAKAVTLKADALGYEARDGSGKMLVDKKRPGSEPVKPAEQPGDPKVDPKAADQKATDQKATDPKTVDPKTVTPADTVEGGPLPSPALPTPSLPPTLPPVTTPPANTPPVPTPTPPANQPAPAPAPQPAPAPQPTPPSGTGGALEHHHHHH | soluble
MAFELPKLPYAFDALEPHFDKETMEIHHDRHHNTYVTKLNAAVEGTDLESKSIEEIVANLDSVPANIQTAVRNNGGGHLNHSLFWELLSPNSEEKGTVVEKIKEQWGSLEEFKKEFADKAAARFGSGWAWLVVNNGQLEIVTTPNQDNPLTEGKTPILGLDVWEHAYYLKYQNKRPDYIGAFWNVVNWEKVDELYNATK | not soluble
MLTIARRFSGSSICRKQITVGSNNIQVIKNIQDREYEAIWKTIGSTRSDLKKDDIKKFKEAWGNDYHQTLTFLKDSDRLIASNSHVVFRPLKDSKGLENLVFRGNLWISPDVRGSEIMDITDKQSYDVGFSVGNNSMAYATKKTMDQYKNLTGSMDHLHKYYVSNYDFGDLCIPKDLDTSGIVVKNARDVPDTDILKYDAKVFKYERSKYVLGQIREDFGRVAYNEKGDVIGIGAISVYPSGECAITPMYADDIRIARTILKNILEEMTLDAEKYWRLQIRSHDQHTGSYGWIRPFLSTMTHRSEVCTLMCDHKEKGMDFSKVYSTFHADNCPI | not soluble
MVKKMVIAVRKDLDMGKGKIAAQVAHAAVTCAIRSMKINRDVFNEWYDEGQRKIVVKVNDLDEIMEIKRMADSMGIVNEIVQDRGYTQVEPGTITCIGLGPDEEEKLDKITGKYKLL | soluble
